Test results: paper PMC5501786

Substrate: O=P(O)(O)O[C@H]1O[C@H](CO)[C@@H](O)[C@H](O)[C@H]1O
Assay: purified protein
Conditions: synthetic direction, glucosyl donor 0.5-10 mM, 20 mM D-glucose, 1 mM MgCl2, 10 mM DTT, Tris-HCl pH 7.5, 60 °C
Text: Pi release from G-1-P, molybdate assay, Hanes-Woolf plot on TaCDP (initially TaCBP; THA_1941)

B1: TaCDP (initially TaCBP; THA_1941) (Thermosipho africanus TCF52B) (protein)
chain: MKKFDFVIENYSKQKLFSSFLPGIAGKNGIPLWVFYVNRGQCIASFGIENKANSILEFKPAGQSHTDTPLKGFRTFIKVDGRYYEPFSELTNFKREMRINKNSLEIEERNNELGLKVKVIYFVLPNEDFAALVRRVEIENEDKYEKHIEIIDGLPEVIPYGVSNGLYKEMGYTARAWMHVYNYEKKVPFYSVRTTIGDLEIVEEINNGYFYFASSGDELLEVIYDKNVLFGNSTSLQVPLVFKELGIKEVLRKEQYDENLLPSAFGVLERKLKDKVVINSMIGFSKEKGLINNNINTLKKDEYIISKKEEADLIVEELVSEIKTKTSNKLFDKYCEQNYLDNVLRGGYPLVFENKDGKVVYHIYSRKHGDLERDYNFFVLEAKKYSQGNGNFRDVAQNRRNDVIFHPEIEDFNLSMFVNLIQADGNNPLVVKGTRFKFEGDPSILDGVNEELKEFILNNYFTPGEILEKLKDKNVNEDEFVSKILYHSSQHEQAEFGEGYWIDHWTYLMDLVDTYKEIYPDKLQKTLFEKFEYKIYDSHAYVKPRKEKYKLYKGKVRQIAAVGESHEKLKIIQERGHNYLTDRNGNIYKTNMFEKLLLLAVNKFATLDPYGMGLEMEANKPGWNDALNGLPALFGSGMSETFELKRLINFMYEELKKYNKDIEVFEELQEFIQKIKVELENYFNDNDQFIYWDNVSNAKEEYRSKVFYSITGNKKKISKVELLAILKKMIKKLDEGIERAKNYGKGIYPTFFTYELVDYEVIDGVIIPKKFEVNVLPYFLEGIVRAFKVIDKDEKKKLYDFVKNSNIYDKKLKMYKTSESILNQPYSIGRIRAFTPGWLENESVFMHMEFKYLLELIKSDMLEEFYEDIKTALPPYMDYKVYGRSILENSSFIVSSANSNPNLHGQGFYARLSGSTAEFLSMWKYMFIGDKLFTLENNELTFTFEPKINKEFFENGVIEFKLFSKTKVKYVNPQLKEKIGRIEVFVDGKKFEIHGNKIKGELAHKLRNKKIDEVICYFE
  Km: 1570 ± 200 µM
  kcat: 7.61 ± 0.66 s⁻¹
  kcat/Km: 4850 M⁻¹ s⁻¹
